Source: article PMC10338489, “Structural and photophysical characterization of the small ultra-red fluorescent protein” (Nature Communications, 2023)
Where “and” joins values, the source holds several entries; their conditions need not be identical. Equal values may be shown once. Blank lines part the entries; values can stand above or below the molecule they belong to.

How the values were obtained:
smURFP H61R = test: native gel or EMSA; NativePAGE 4-16% Bis-Tris gel, 0.27 μg purified protein per lane, without and with 100 mM DTT; Coomassie stain and far-red fluorescence; homodimeric smURFP used as a size reference
[1] = molecular target: the molecule itself; test: crystal structure; apo-smURFP crystallised from smURFP with 20% BV attached; hanging drop, 20 °C, 4 M Na nitrate + 0.1 M NaOAc (pH 4.6); 2.8 Å, space group C222(1), six protomers (three homodimers) in the asymmetric unit
[2] = molecular target: the molecule itself; test: cell-based or functional assay

OSER assay in HEK293A cells expressing CytERM-mGFP: ratio of the MFI of the OSER structure to the MFI of the nuclear envelope, after 24 and 48 h (CytERM-mGFP): < 2.3
Molecule: CytERM-mGFP

stoichiometry N (smURFP H61R): 2 and > 2
Molecule: smURFP H61R

B1: small Ultra-Red Fluorescent Protein (smURFP) (other)
chain: MKTSEQRVNIATLLTENKKKIVDKASQDLWRRHPDLIAPGGIAFSQRDRALCLRDYGWFLHLITFCLLAGDKGPIESIGLISIREMYNSLGVPVPAMMESIRCLKEASLSLLDEEDANETAPYFDYIIKAMS
modifications: biliverdin (BV) covalently attached to C52 in part of the protein (20% BV with high expression); the crystal holds apo-smURFP
stoichiometry N [1]: 2 | OSER assay in HEK293A cells expressing CytERM-smURFP: ratio of the MFI of the OSER structure to the MFI of the nuclear envelope, after 24 h (4.8) and 48 h (3.7) [2]: 4.8
